± gives the standard deviation of the averaged measurements.
Tested on: ATP
Assay: switch fluorescence ratio, 500 uM ATP over buffer (Cy3 cluster intensity, sum of 5 cycles each) (fold (ratio)); higher = stronger signal-on switching upon ATP binding; sequences stand for … in TCGTCGGCAGCGTCAGATGTGTATAAGAGACAGTTTTTTTTTTTTTTTTTTTTTTTTT…TC
Details: aptamer strand: ATP DNA aptamer (quencher-CACCTGGGGGAGTATTGCGGAGGAAGG + anchor), 100 nM annealed; ATP concentration: 500 uM
Procedure, shortened: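 Exposure to 500 uM ATP lasted 15 min at 22 °C before imaging, and a selection-buffer image was taken beforehand, for Cy3-labelled switching-strand clusters on a modified Illumina MiSeq flow-cell annealed to 100 nM quencher-labelled ATP aptamer. Five buffer/ATP cycles were run with NaOH stripping and re-annealing between them. The fluorescence ratio per cluster is summed target-cycle over summed buffer-cycle Cy3 intensity, averaged per switch-domain sequence. Clusters outside 100-1000 RFU were excluded.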

| Sequence | switch fluorescence ratio |
| --- | --- |
| ACTGTAAGGC | 1.07 ± 0.02 |
| ACTGTAATTC | 1.19 ± 0.041 |
| ACTGTAATTT | 1.18 ± 0.027 |
| ACTGTACGCA | 1.51 ± 0.086 |
| ACTGTGCACC | 1.05 ± 0.052 |
| ACTGTGCCGG | 1.02 ± 0.043 |
| ACTGTGGGGC | 0.9788 ± 0.0057 |
| ACTGTGTTAT | 0.983 ± 0.02 |
| ACTGTTAGTA | 1.01 ± 0.011 |
| ACTGTTATAT | 1.044 ± 0.0053 |
| ACTTAAAAAC | 1.08 ± 0.055 |
| ACTTACGGCG | 1.168 ± 0.0051 |
| ACTTAGCAGG | 1.08 ± 0.013 |
| ACTTAGGCG | 1.05 ± 0.086 |
| ACTTAGGGGG | 1.01 ± 0.024 |
| ACTTCAGGGA | 1.01 ± 0.024 |
| ACTTCGGGGC | 1.12 ± 0.027 |
| ACTTGAACGG | 1.16 ± 0.034 |
| ACTTGAAGGT | 1.02 ± 0.017 |
| ACTTGCTTTA | 1.04 ± 0.017 |
| ACTTGGGAAT | 1.03 ± 0.02 |
| ACTTGTGAAG | 1.0247 ± 0.00063 |
| ACTTGTGCAG | 0.978 ± 0.026 |

| Sequence | switch fluorescence ratio |
| --- | --- |
| ACTTGTGCTT | 0.9728 ± 0.0027 |
| ACTTGTGGCT | 1.01 ± 0.018 |
| ACTTGTTATG | 0.996 ± 0.028 |
| ACTTGTTTAT | 0.981 ± 0.032 |
| ACTTGTTTTT | 0.99 ± 0.033 |
| ACTTTACGGC | 1.286 ± 0.0091 |
| ACTTTAGCAG | 1.034 ± 0.0063 |
| ACTTTCAGCC | 1.03 ± 0.017 |
| ACTTTCGGTT | 1.003 ± 0.0023 |
| ACTTTGATTG | 0.982 ± 0.024 |
| ACTTTGCCAC | 1.18 ± 0.016 |
| ACTTTGCTAG | 1.03 ± 0.024 |
| ACTTTGGCGT | 1.03 ± 0.014 |
| ACTTTGGGTT | 1.01 ± 0.023 |
| ACTTTGGTGG | 1 ± 0.029 |
| ACTTTGTATG | 1 ± 0.017 |
| ACTTTTACTC | 1.16 ± 0.014 |
| ACTTTTGCGG | 1.021 ± 0.0092 |
| ACTTTTTGGC | 0.975 ± 0.022 |
| ACTTTTTTT | 1 ± 0.0022 |
| AGAAAAAGGT | 1.01 ± 0.032 |
| AGAAAAGCAG | 1.02 ± 0.015 |
| AGAAAATAGA | 0.9789 ± 0.0084 |

| Sequence | switch fluorescence ratio |
| --- | --- |
| AGAAAATTAG | 1.02 ± 0.039 |
| AGAAAATTGT | 1.01 ± 0.025 |
| AGAAAATTTT | 1.03 ± 0.031 |
| AGAAACAAAC | 1.041 ± 0.0083 |
| AGAAAGCGCG | 1.05 ± 0.019 |
| AGAAAGGGGC | 1.31 ± 0.31 |
| AGAAAGGGTT | 0.98 ± 0.022 |
| AGAAAGGTAT | 1.11 ± 0.25 |
| AGAAAGTCAA | 1.0199 ± 1.9e-05 |
| AGAAATCGGA | 1.038 ± 0.0056 |
| AGAACAGCAT | 1.01 ± 0.021 |
| AGAACAGGTG | 3.18 ± 0.27 |
| AGAACTCACC | 1.19 ± 0.049 |
| AGAACTCTTT | 1.02 ± 0.022 |
| AGAAGAAGTA | 0.9955 ± 0.0035 |
| AGAAGCTAAG | 0.996 ± 0.015 |
| AGAAGGAGGT | 0.9874 ± 0.0089 |
| AGAAGGCCGG | 0.98 ± 0.056 |
| AGAAGGCGCG | 1.01 ± 0.038 |
| AGAAGGCGGG | 0.985 ± 0.029 |
| AGAAGGGGAC | 1.02 ± 0.026 |
| AGAAGGGGG | 0.968 ± 0.022 |
| AGAAGGGGGC | 0.989 ± 0.062 |

| Sequence | switch fluorescence ratio |
| --- | --- |
| AGAAGGGGGT | 1.02 ± 0.035 |
| AGAAGGGTTA | 1.01 ± 0.017 |
| AGAAGGTATG | 1.0001 ± 0.0006 |
| AGAAGTAAGA | 0.998 ± 0.0065 |
| AGAAGTGATA | 0.976 ± 0.023 |
| AGAAGTGGTC | 1.01 ± 0.031 |
| AGAATAATGG | 1 ± 0.022 |
| AGAATCGACG | 0.993 ± 0.056 |
| AGAATCGAGT | 1.01 ± 0.025 |
| AGAATCTTTC | 1.05 ± 0.071 |
| AGAATGGAGA | 1 ± 0.013 |
| AGAATGGATC | 1.01 ± 0.012 |
| AGAATGTCGA | 0.968 ± 0.068 |
| AGAATTAAGG | 1.01 ± 0.045 |
| AGAATTACTT | 1.001 ± 0.0092 |
| AGAATTAGAG | 0.969 ± 0.054 |
| AGAATTCCCT | 1.011 ± 0.01 |
| AGAATTCTAG | 1.01 ± 0.022 |
| AGAATTGGCA | 1 ± 0.037 |
| AGAATTTAAA | 0.992 ± 0.032 |
| AGACACTGAC | 1.45 ± 0.028 |
| AGACATAGAG | 1 ± 0.011 |
| AGACCCTTTT | 0.994 ± 0.037 |

| Sequence | switch fluorescence ratio |
| --- | --- |
| AGACCGAGAC | 1.18 ± 0.079 |
| AGACCTGGCC | 1.14 ± 0.011 |
| AGACGAAGT | 1 ± 0.019 |
| AGACGAGAAT | 1.09 ± 0.14 |
| AGACGATTAG | 0.977 ± 0.03 |
| AGACGGACGT | 1.05 ± 0.013 |
| AGACGGGTAG | 0.968 ± 0.032 |
| AGACGTAGTA | 1.03 ± 0.014 |
| AGACGTAGTG | 0.99 ± 0.029 |
| AGACGTCACT | 1.77 ± 0.12 |
| AGACTCAATG | 0.988 ± 0.07 |
| AGACTCCAAG | 1 ± 0.059 |
| AGACTGACAA | 1.1 ± 0.021 |
| AGACTGGTTG | 0.993 ± 0.035 |
| AGACTTTAGT | 1.01 ± 0.036 |
| AGACTTTGAG | 1.03 ± 0.061 |
| AGAGAAGATG | 1.01 ± 0.034 |
| AGAGAAGGTC | 1.017 ± 0.0086 |
| AGAGAAGTGA | 0.986 ± 0.032 |
| AGAGAATGGT | 0.999 ± 0.027 |
| AGAGACACAT | 1 ± 0.0086 |
| AGAGACATGC | 0.923 ± 0.085 |
| AGAGACCCCG | 0.971 ± 0.039 |

| Sequence | switch fluorescence ratio |
| --- | --- |
| AGAGACGAAT | 1.013 ± 0.0085 |
| AGAGAGGAGT | 0.982 ± 0.021 |
| AGAGAGGGCG | 0.888 ± 0.14 |
| AGAGAGGGGC | 0.971 ± 0.014 |
| AGAGAGGGGT | 1.01 ± 0.047 |
| AGAGAGGGTG | 1.06 ± 0.048 |
| AGAGATGTAG | 0.966 ± 0.023 |
| AGAGATTCAC | 1.03 ± 0.013 |
| AGAGCGTTGT | 0.977 ± 0.023 |
| AGAGCTGGGA | 0.965 ± 0.015 |
| AGAGGAGGTG | 1.02 ± 0.03 |
| AGAGGAGTGC | 0.958 ± 0.056 |
| AGAGGCCAAC | 1.002 ± 0.0062 |
| AGAGGCCGGG | 1 ± 0.032 |
| AGAGGCCGTT | 0.9965 ± 0.0074 |
| AGAGGCGGGA | 0.956 ± 0.11 |
| AGAGGCTTAG | 1 ± 0.066 |
| AGAGGGAAAC | 1.14 ± 0.3 |
| AGAGGGAGAT | 0.9876 ± 0.0098 |
| AGAGGGATTA | 0.999 ± 0.037 |
| AGAGGGGGTT | 0.971 ± 0.035 |
| AGAGGGGTAA | 0.998 ± 0.029 |
| AGAGGGGTAT | 1.04 ± 0.017 |

| Sequence | switch fluorescence ratio |
| --- | --- |
| AGAGGGTCCT | 1.03 ± 0.034 |
| AGAGGGTGTG | 0.992 ± 0.034 |
| AGAGGTATCG | 0.995 ± 0.019 |
| AGAGGTTGTT | 0.995 ± 0.038 |
| AGAGTCAATG | 1.04 ± 0.023 |
| AGAGTCCCTT | 1 ± 0.036 |
| AGAGTCTGGT | 0.965 ± 0.03 |
| AGAGTCTTTT | 0.9934 ± 0.0016 |
| AGAGTGGTTA | 0.9864 ± 0.0033 |
| AGAGTTGGCT | 0.992 ± 0.021 |
| AGAGTTGGTG | 0.997 ± 0.031 |
| AGAGTTGTGG | 0.982 ± 0.024 |
| AGAGTTTGTG | 0.978 ± 0.015 |
| AGAGTTTTTA | 1.01 ± 0.035 |
| AGATAAAATT | 0.98 ± 0.056 |
| AGATAATTAG | 1 ± 0.023 |
| AGATACAGTT | 1.02 ± 0.034 |
| AGATACATAT | 1.05 ± 0.0056 |
| AGATAGAAGG | 0.995 ± 0.012 |
